B1: Antiviral innate immune response effector IFIT1 (Homo sapiens), P09914 (parent)
chain: MSTNGDDHQVKDSLEQLRCHFTWELSIDDDEMPDLENRVLDQIEFLDTKYSVGIHNLLAYVKHLKGQNEEALKSLKEAENLMQEEHDNQANVRSLVTWGNFAWMYYHMGRLAEAQTYLDKVENICKKLSNPFRYRMECPEIDCEEGWALLKCGGKNYERAKACFEKVLEVDPENPESSAGYAISAYRLDGFKLATKNHKPFSLLPLRQAVRLNPDNGYIKVLLALKLQDEGQEAEGEKYIEEALANMSSQTYVFRYAAKFYRRKGSVDKALELLKKALQETPTSVLLHHQIGLCYKAQMIQIKEATKGQPRGQNREKLDKMIRSAIFHFESAVEKKPTFEVAHLDLARMYIEAGNHRKAEENFQKLLCMKPVVEETMQDIHFHYGRFQEFQKKSDVNAIIHYLKAIKIEQASLTRDKSINSLKKLVLRKLRRKALDLESLSLLGFVYKLEGNMNEALEYYERALRLAADFENSVRQGP
partner: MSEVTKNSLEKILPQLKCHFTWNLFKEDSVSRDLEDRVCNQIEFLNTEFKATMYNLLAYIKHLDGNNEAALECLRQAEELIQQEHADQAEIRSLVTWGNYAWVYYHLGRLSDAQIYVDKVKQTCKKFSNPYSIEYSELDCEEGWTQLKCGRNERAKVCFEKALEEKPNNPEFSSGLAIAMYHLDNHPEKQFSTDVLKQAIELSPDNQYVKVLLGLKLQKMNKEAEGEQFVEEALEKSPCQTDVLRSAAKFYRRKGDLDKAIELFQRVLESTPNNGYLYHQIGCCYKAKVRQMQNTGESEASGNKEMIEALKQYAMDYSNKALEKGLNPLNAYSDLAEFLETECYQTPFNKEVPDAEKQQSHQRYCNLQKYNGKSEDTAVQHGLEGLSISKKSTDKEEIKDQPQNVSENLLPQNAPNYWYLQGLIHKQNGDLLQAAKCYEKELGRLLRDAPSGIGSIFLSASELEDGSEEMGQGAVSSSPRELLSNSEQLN
B2: Glutathione S-transferase omega-2 (Homo sapiens), Q9H4Y5 (parent)
chain: MSGDATRTLGKGSQPPGPVPEGLIRIYSMRFCPYSHRTRLVLKAKDIRHEVVNINLRNKPEWYYTKHPFGHIPVLETSQCQLIYESVIACEYLDDAYPGRKLFPYDPYERARQKMLLELFCKVPHLTKECLVALRCGRECTNLKAALRQEFSNLEEILEYQNTTFFGGTCISMIDYLLWPWFERLDVYGILDCVSHTPALRLWISAMKWDPTVCALLMDKSIFQGFLNLYFQNNPNAFDFGLC
B3: L-fucose dehydrogenase (Homo sapiens), Q9BPX1 (parent)
chain: MATGTRYAGKVVVVTGGGRGIGAGIVRAFVNSGARVVICDKDESGGRALEQELPGAVFILCDVTQEDDVKTLVSETIRRFGRLDCVVNNAGHHPPPQRPEETSAQGFRQLLELNLLGTYTLTKLALPYLRKSQGNVINISSLVGAIGQAQAVPYVATKGAVTAMTKALALDESPYGVRVNCISPGNIWTPLWEELAALMPDPRATIREGMLAQPLGRMGQPAEVGAAAVFLASEANFCTGIELLVTGGAELGYGCKASRSTPVDAPDIPS
partner: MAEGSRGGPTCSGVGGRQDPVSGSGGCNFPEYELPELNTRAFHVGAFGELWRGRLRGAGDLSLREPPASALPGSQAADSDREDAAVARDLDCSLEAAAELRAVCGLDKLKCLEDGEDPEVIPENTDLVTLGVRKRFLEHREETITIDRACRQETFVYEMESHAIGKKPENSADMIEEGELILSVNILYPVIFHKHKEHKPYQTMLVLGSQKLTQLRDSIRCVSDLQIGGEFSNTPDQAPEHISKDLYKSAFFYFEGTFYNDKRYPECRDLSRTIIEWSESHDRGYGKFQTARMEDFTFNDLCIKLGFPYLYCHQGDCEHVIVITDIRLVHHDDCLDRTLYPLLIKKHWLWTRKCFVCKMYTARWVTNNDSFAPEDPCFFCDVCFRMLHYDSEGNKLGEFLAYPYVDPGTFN
B4: NIF3-like protein 1 (Homo sapiens), Q9GZT8 (parent)
chain: MLSSCVRPVPTTVRFVDSLICNSSRSFMDLKALLSSLNDFASLSFAESWDNVGLLVEPSPPHTVNTLFLTNDLTEEVMEEVLQKKADLILSYHPPIFRPMKRITWNTWKERLVIRALENRVGIYSPHTAYDAAPQGVNNWLAKGLGACTSRPIHPSKAPNYPTEGNHRVEFNVNYTQDLDKVMSAVKGIDGVSVTSFSARTGNEEQTRINLNCTQKALMQVVDFLSRNKQLYQKTEILSLEKPLLLHTGMGRLCTLDESVSLATMIDRIKRHLKLSHIRLALGVGRTLESQVKVVALCAGSGSSVLQGVEADLYLTGEMSHHDTLDAASQGINVILCEHSNTERGFLSDLRDMLDSHLENKINIILSETDRDPLQVV
B5: Phosphatidylinositol-3-phosphate phosphatase MTMR7 (Homo sapiens), Q9Y216 (parent)
chain: MEHIRTPKVENVRLVDRVSPKKAALGTLYLTATHVIFVENSPDPRKETWILHSQISTIEKQATTATGCPLLIRCKNFQIIQLIIPQERDCHDVYISLIRLARPVKYEELYCFSFNPMLDKEEREQGWVLIDLSEEYTRMGLPNHYWQLSDVNRDYRVCDSYPTELYVPKSATAHIIVGSSKFRSRRRFPVLSYYYKDNHASICRSSQPLSGFSARCLEDEQMLQAIRKANPGSDFVYVVDTRPKLNAMANRAAGKGYENEDNYSNIKFQFIGIENIHVMRNSLQKMLEVCELKSPSMSDFLWGLENSGWLRHIKAIMDAGIFIAKAVSEEGASVLVHCSDGWDRTAQVCSVASLLLDPHYRTLKGFMVLIEKDWISFGHKFNHRYGNLDGDPKEISPVIDQFIECVWQLMEQFPCAFEFNERFLIHIQHHIYSCQFGNFLCNSQKERRELKIQERTYSLWAHLWKNRADYLNPLFRADHSQTQGTLHLPTTPCNFMYKFWSGMYNRFEKGMQPRQSVTDYLMAVKEETQQLEEELEALEERLEKIQKVQLNCTKVKSKQSEPSKHSGFSTSDNSIANTPQDYSGNMKSFPSRSPSQGDEDSALILTQDNLKSSDPDLSANSDQESGVEDLSCRSPSGGEHAPSEDSGKDRDSDEAVFLTA
partner: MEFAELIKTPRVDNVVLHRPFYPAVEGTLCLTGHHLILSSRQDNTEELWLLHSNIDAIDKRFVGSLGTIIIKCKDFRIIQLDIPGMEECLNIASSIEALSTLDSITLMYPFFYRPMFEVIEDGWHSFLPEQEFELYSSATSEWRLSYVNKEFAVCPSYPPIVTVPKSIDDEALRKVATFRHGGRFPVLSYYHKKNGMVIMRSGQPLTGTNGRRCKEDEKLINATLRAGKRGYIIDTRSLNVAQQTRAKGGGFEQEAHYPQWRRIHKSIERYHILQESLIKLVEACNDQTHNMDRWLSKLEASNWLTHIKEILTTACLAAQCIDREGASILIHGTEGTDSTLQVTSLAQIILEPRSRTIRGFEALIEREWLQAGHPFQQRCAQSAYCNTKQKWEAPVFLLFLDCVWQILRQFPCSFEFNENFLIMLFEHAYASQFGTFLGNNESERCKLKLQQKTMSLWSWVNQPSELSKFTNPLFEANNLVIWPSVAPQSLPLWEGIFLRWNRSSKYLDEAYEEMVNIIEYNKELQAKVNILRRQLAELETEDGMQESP
B6: "N-acyl-aromatic-L-amino acid amidohydrolase (carboxylate-forming)" (Homo sapiens), Q96HD9 (parent)
chain: MCSLPVPREPLRRVAVTGGTHGNEMSGVYLARHWLHAPAELQRASFSAVPVLANPAATSGCRRYVDHDLNRTFTSSFLNSRPTPDDPYEVTRARELNQLLGPKASGQAFDFVLDLHNTTANMGTCLIAKSSHEVFAMHLCRHLQLQYPELSCQVFLYQRSGEESYNLDSVAKNGLGLELGPQPQGVLRADIFSRMRTLVATVLDFIELFNQGTAFPAFEMEAYRPVGVVDFPRTEAGHLAGTVHPQLQDRDFQPLQPGAPIFQMFSGEDLLYEGESTVYPVFINEAAYYEKGVAFVQTEKFTFTVPAMPALTPAPSPAS
partner: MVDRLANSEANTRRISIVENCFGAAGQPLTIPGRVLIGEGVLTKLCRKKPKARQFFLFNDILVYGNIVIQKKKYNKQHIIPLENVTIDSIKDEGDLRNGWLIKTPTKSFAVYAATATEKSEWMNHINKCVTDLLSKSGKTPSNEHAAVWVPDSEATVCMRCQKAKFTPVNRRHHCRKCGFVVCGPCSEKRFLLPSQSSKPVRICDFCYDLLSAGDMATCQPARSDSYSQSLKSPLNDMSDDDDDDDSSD
B7: Transmembrane protein 79 (Homo sapiens), Q9BSE2 (parent)
chain: MTEQETLALLEVKRSDSPEKSSPQALVPNGRQPEGEGGAESPGAESLRVGSSAGSPTAIEGAEDGLDSTVSEAATLPWGTGPQPSAPFPDPPGWRDIEPEPPESEPLTKLEELPEDDANLLPEKAARAFVPIDLQCIERQPQEDLIVRCEAGEGECRTFMPPRVTHPDPTERKWAEAVVRPPGCSCGGCGSCGDREWLRAVASVGAALILFPCLLYGAYAFLPFDVPRLPTMSSRLIYTLRCGVFATFPIVLGILVYGLSLLCFSALRPFGEPRREVEIHRRYVAQSVQLFILYFFNLAVLSTYLPQDTLKLLPLLTGLFAVSRLIYWLTFAVGRSFRGFGYGLTFLPLLSMLMWNLYYMFVVEPERMLTATESRLDYPDHARSASDYRPRPWG
partner: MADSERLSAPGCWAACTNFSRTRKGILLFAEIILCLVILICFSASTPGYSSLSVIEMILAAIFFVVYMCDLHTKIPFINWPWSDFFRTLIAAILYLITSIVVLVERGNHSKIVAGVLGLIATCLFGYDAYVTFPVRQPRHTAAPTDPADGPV

Variants of B1 are the subject of the first test. As to conditions: with ifit3_human IFIT3, O14879.
For the variant A162T, the “effect of a mutation on the interaction” value is “with no effect”.

In the next test the parent is B2. Particulars: with ap2a_human TFAP2A.
Turning to N142D, the “effect of a mutation on the interaction” value is reported as “with no effect”.

The variants in a further test derive from B3. Particulars: with snpc3_human SNAPC3, Q92966.
Regarding G16W, the “effect of a mutation on the interaction” value is “disrupting interaction strength”.
For R130W, the “effect of a mutation on the interaction” value is “disrupting interaction strength”.
As for A56T, the “effect of a mutation on the interaction” value is “with no effect”.
As to N31D, the “effect of a mutation on the interaction” value is given as “with no effect”.

The variants in a further test derive from B4. As to conditions: with zn446_human ZNF446, Q9NWS9.
Chain of zn446_human ZNF446, Q9NWS9 (Q9NWS9 whole entry): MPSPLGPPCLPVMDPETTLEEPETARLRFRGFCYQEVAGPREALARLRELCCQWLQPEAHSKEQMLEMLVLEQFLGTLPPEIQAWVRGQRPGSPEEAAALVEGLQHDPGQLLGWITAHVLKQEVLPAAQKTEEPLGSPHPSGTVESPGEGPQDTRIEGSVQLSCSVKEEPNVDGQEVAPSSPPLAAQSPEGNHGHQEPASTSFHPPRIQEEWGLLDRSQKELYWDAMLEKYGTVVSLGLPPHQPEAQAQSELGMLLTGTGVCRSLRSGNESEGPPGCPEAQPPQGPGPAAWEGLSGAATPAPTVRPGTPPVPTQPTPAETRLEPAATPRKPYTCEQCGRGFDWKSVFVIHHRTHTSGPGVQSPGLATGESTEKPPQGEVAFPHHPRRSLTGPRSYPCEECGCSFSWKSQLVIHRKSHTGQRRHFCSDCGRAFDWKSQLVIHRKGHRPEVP
On to T324I, for which the “effect of a mutation on the interaction” value is on record as “with no effect”.

The variants in the next test derive from B4. Particulars: with rgs20_human RGS20, O76081.
Chain of rgs20_human RGS20, O76081 (O76081 whole entry): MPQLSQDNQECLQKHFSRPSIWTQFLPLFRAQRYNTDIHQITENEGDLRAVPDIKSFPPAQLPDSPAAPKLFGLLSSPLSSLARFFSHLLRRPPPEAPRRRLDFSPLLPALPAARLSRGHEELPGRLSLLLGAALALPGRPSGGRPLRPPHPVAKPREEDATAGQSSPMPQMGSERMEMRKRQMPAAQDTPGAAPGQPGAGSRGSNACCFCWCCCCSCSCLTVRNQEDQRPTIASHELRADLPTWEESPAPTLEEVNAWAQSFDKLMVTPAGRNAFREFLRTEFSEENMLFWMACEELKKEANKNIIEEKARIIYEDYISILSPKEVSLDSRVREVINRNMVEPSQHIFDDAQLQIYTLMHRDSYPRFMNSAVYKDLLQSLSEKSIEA
Regarding T324I, the “effect of a mutation on the interaction” value is recorded as “with no effect”.

The variants in another test derive from B5. As to conditions: with mtmr9_human MTMR9, Q96QG7.
For M522T, the “effect of a mutation on the interaction” value is recorded as “with no effect”.

The variants in a further test derive from B6. Particulars: with pkhf2_human PLEKHF2, Q9H8W4.
As to R8Q, the “effect of a mutation on the interaction” value was “disrupting interaction strength”.

In the next test the parent is B7. Particulars: with plp2_human PLP2, Q04941.
Consider S104T, for which the “effect of a mutation on the interaction” value is listed as “with no effect”.

The values above are taken from IntAct's records for PubMed 31515488.
